Data on one protein can be found in paper PMC4795551, “Biochemistry and Crystal Structure of Ectoine Synthase: A Metal-Containing Member of the Cupin Superfamily” (PLoS ONE, 2016).

Data set [1] concerns the molecule itself. The data set can be described thus: SEC-MALS; HPLC-MALS; Bio SEC-5 HPLC column (300 Å), 20 mM Tris-HCl (pH 7.5), 200 mM NaCl; 100 μl of purified (Sa)EctC at 2 mg ml^-1 loaded. For orientation: In gel filtration, larger molecules generally elute earlier.
Substrate in data set [2]: CC(=O)N[C@@H](CCN)C(=O)O
The data set can be described thus: HPLC assay of ectoine formation, Michaelis-Menten. The following applies: 20 mM Tris pH 8.5, 200 mM NaCl, 1 mM FeCl2, 15 °C, 20 min, 0-200 mM substrate. Type of data set: biochemical, Sphingopyxis alaskensis.

Substrate in data set [3]: CC(=O)NCC[C@H](N)C(=O)O
The experiment in a line: HPLC assay of ectoine formation, Michaelis-Menten. In kind it is biochemical, Sphingopyxis alaskensis. The note with it: 20 mM Tris pH 8.5, 200 mM NaCl, 1 mM FeCl2, 15 °C, 20 min, 0-40 mM substrate.

By stoichiometry N is commonly meant the number of molecules, sites or subunits per partner or assembly. The term Km denotes the concentration of substrate that gives half-maximal velocity. Usually kcat stands for the maximal rate divided by the concentration of active sites.

B1: ectoine synthase from Sphingopyxis alaskensis, (Sa)EctC-Strep-tag II protein (enzyme, UniProt Q1GNW6 1-137, looked up)
chain: MIVRNLGDIRKTDRNVRSDGWASARMLLKDDGMGFSFHVTTLFAGSELRMHYQNHLEAVLVLKGTGTIEDLATGEVHALRPGVMYALDDHDRHIVRPETDILTACVFNPPVTGREVHDESGAYPADPELAREPVAAD
notes: Ectoine synthase EctC (EC 4.2.1.108) of Sphingopyxis alaskensis, 137 amino acids; made from a codon-optimised synthetic ectC gene; printed stretches: 1-MIVRN-5 and 82-GVMYAL-87; Monomer with tag 16.3 kDa; In the crystals only Met-1 to Glu-115 (open) or Met-1 to Gly-121 (protomer A, semi-closed) are resolved; not shown: Strep-tag II, C-terminal, kept
On to B1, for which the “stoichiometry N” value in data set [1] was found to be 2. Further, in data set [2], the Km was found to be 25.4 ± 2.9 mM and the turnover number (kcat) came out at 0.6 s⁻¹. In data set [3], the Km is reported as 4.9 ± 0.5 mM and the catalytic constant (kcat) was determined as 7.2 s⁻¹.
